Test results from US20140005125A1 (Molecular Partners, published 2014).
Residue numbers refer to the chain shown, from its start.

B1: DARPin #29 (designed binder)
chain: MRGSHHHHHHGSDLGKKLLEAARAGQDDEVRILLKAGADVNAKDEEGTTPLHYAAVWGHLEIVEVLLKAGADVNAQDIYGATPADLAALVGHEDIAEVLQKLN
B2: DARPin #37 (designed binder)
chain: B1 chain with K16W, A24T, K35A, E45I, E46T, V56A, L60M, A69T, I78L, V90L
B3: DARPin #24 (designed binder)
chain: B1 chain with I32E
B4: DARPin #31 (designed binder)
chain: B1 chain with I32E, W57F
B5: DARPin #38 (designed binder)
chain: B1 chain with K16D, E20W, R23K, A24H, K35A, E45D, T48S, I62T, Y79W, V90L
B6: DARPin #36 (designed binder)
chain: B1 chain with K16S, E20T, R23L, A24D, K35A, W57V, Y79W
B7: DARPin #32 (designed binder)
chain: B1 chain with K16H, E20Q, R23K, A24H, K35A, E45D, I78A, L89F, V90L
B8: DARPin #26 (designed binder)
chain: B1 chain with K35A, V98I
B9: DARPin #33 (designed binder)
chain: B1 chain with K16H, E20Q, R23E, A24Q, K35A, E46Y, Y53F, I78V, Y79F, L89Y
B10: DARPin #40 (designed binder)
chain: B1 chain with K16Y, E20S, R23Q, A24Y, K35A, E45Y, E46S, V56T, V90I
B11: DARPin #25 (designed binder)
chain: B1 chain with L34M, K35A, A36N, V98I
B12: DARPin #52 (designed binder)
chain: MRGSHHHHHHGSDLGKKLLEAARAGQDDEVRILMANGADVNAQDLNGQTPLHLAADIGHLEIVEVLLKHGADVNAQDYAGSTPLRLAAWAGHLEIVEVLLKNGADVNANDYFGYTPLHLAAYFGHLEIVDVLLKHGADVNAQDKFGKTPADIAADNGHEDIAEVLQKLN
B13: DARPin #43 (designed binder)
chain: MRGSHHHHHHGSDLGLKLLEAAQRGQDDEVRILLAAGADVNAKDREGWTPLHVAAYEGHLEIVEVLLKAGADVNAKDYTGLTPLHVAAVWGHLEIVEVLLKAGADVNAQDIYGATPADLAAYIGHEDIAEVLQKLN
B14: DARPin #35 (designed binder)
chain: MRGSHHHHHHGSDLGQKLLYAAEHGQDDEVRILLAAGADVNAKDQTGSTPLHYAAVWGHMEIVEVLLKAGADVNAQDLWGATPADLAAFLGHEDIAVVLQKLN
B15: DARPin #42 (designed binder)
chain: MRGSHHHHHHGSDLGYKLLFAAYVGQDDEVRILLAAGADVNAKDRHGRTPLHLAAWEGHLEIVEVLLKAGADVNAKDDEGTTPLHLLAAWEGHLEIVEVLLKAGADVNAQDVYGATPADLAAYIGHEDIAEVLQKLN
B16: DARPin #51 (designed binder)
chain: MRGSHHHHHHGSDLGKKLLEAARAGQDDEVRILMANGADVNAKDLNGQTPLHLAADIGHLEIVEVLLKAGADVNAKDYAGSTPLRLAAWAGHLEIVEVLLKAGADVNAKDYFGYTPLHLAAYFGHLEIVEVLLKAGADVNAQDKFGKTAFDISIDNGNEDLAEILQKLN
B17: DARPin #59 (designed binder)
chain: B16 chain with D27G, R31H, K43Q, A69H, K76Q, A102N, K109N, A135H
B18: DARPin #55 (designed binder)
chain: B16 chain with M34L, A35K, N36A
B19: DARPin #54 (designed binder)
chain: B16 chain with F145S, A149P, F150A, I152L, S153A, I154A, N156A, N158H, L161I, I164V
B20: DARPin #56 (designed binder)
chain: MRGSHHHHHHGSDLDKKLLEAARAGQDDEVRILLKAGADVNAKDLNGQTPLHLAADIGHLEIVEVLLKAGADVNAKDYAGSTPLRLAAWAGHLEIVEVLLKAGADVNAKDYFGYTPLHLAAYFGHLEIVEVLLKAGADVNAQDKFGKTPADIAADNGHEDIAEVLQKLN
B21: DARPin #53 (designed binder)
chain: B20 chain with L34M, K35A, A36N
B22: DARPin #47 (designed binder)
chain: MRGSHHHHHHGSDLGKKLLEAARAGQDDEVRILLKAGADVNAKDKSGHTPLHLAAYSGHLEIVEVLLKAGADVNAKDQEGTTPLHFAASVGHLEIVEVLLKAGADVNAQDHYGATPADLAALIGHEDIAEVLQKLN
B23: DARPin #45 (designed binder)
chain: B22 chain with I32E
B24: DARPin #46 (designed binder)
chain: B22 chain with L34M, K35A, A36N
B25: DARPin #44 (designed binder)
chain: B22 chain with K16A, E20H, R23V, A24V, K35A
B26: DARPin #57 (designed binder)
chain: B20 chain with D15G, F145S, I152L, N156A
B27: DARPin #58 (designed binder)
chain: B20 chain with D15G, I32E, F145S, I152L, N156A
B28: DARPin #34 (designed binder)
chain: MRGSHHHHHHGSDLGDKLLQSDLGRKLLHAARSGQDDEVRILLAAGADVNAKDEDGTTPLHYAAAWGHLEIVEVLLKAGADVNAQDIYGATPADLAAYIGHEDIAEVLQKLN

Tests used:
[1] = target: T1, Recombinant human PDGF-BB (human, UniProt P01127 82-190); assay: SPR (ProteOn), biotinylated PDGF-BB on neutravidin chip, DARPin injected; Kd from on- and off-rates
T1 construct: For SPR it was chemically biotinylated on primary amines and captured on neutravidin; also called PDGF-BB (human); Reliatech 200-055
Method: (§1) Biotinylated PDGF-BB molecules from human and mouse were immobilized in a flow cell through binding to coated […] and the interaction with various selected DARPins was analyzed.
(§2) SPR was measured using a ProteOn instrument (BioRad) and measurement was performed according standard procedures known to the person skilled in the art. The running buffer was PBS, pH 7.4, containing 0.005% Tween 20®. Neutravidin was covalently immobilized on a GLC chip (BioRad) to a level of about 8000 resonance units (RU). Immobilization of PDGF-BB on the neutravidin coated chip was then performed. The interaction of DARPin PDGF-BB was then measured by injecting 100 μl running buffer (PBS containing 0.005% Tween®) containing serial dilutions of DARPins of concentration of […] (on-rate measurement), followed by a running buffer flow for between 10 minutes and up to 3 hours at a constant flow rate of 30 μl/min (off-rate measurement). The signals (i.e. resonance unit (RU) values) of an uncoated reference cell and a reference injection (i.e. injection of running buffer only) were subtracted from the RU traces obtained after injection of […] (double-referencing). From the SRP traces obtained from the on-rate and off-rate measurements the on- and off-rate of the corresponding DARPin PDGF-BB interaction can be determined.
(§3) Dissociation constants (Kd) were calculated from the estimated on- and off-rates using standard procedures known to the person skilled in the art.

[2] = target: T1, Recombinant human PDGF-BB; assay: receptor competition ELISA: DARPin preincubated with PDGF-BB, free PDGF-BB captured on coated PDGFRbeta/Fc; mean IC50
Method: The potency of PEGylated anti-PDGF-BB DARPins to inhibit the binding of human PDGF-BB to its receptor PDGFRbeta was determined in a in a receptor competition ELISA (based on PDGF-BB Quantikine, R&D Systems). PDGFRbeta/Fc chimera has been precoated on a microplate. The DARPins were preincubated in assay diluent from the PDGF-BB Quantikine kit (R&D Systems) with a defined amount of PDGF-BB and incubated at room temperature for 2 hours with shaking at 750 rpm. These preincubation mixtures were then transferred into the precoated wells and any PDGF-BB that is not blocked by the DARPins was bound by the immobilized receptor. After washing away any unbound substances, a horse radish peroxidase-linked polyclonal antibody specific for PDGF-BB was added to the wells. Following a wash to remove any unbound antibody-enzyme reagent, a substrate solution was added to the wells and color was developing in proportion to the amount of PDGF-BB bound. The color development was stopped and the intensity of the color was measured at […]. Example titration curves are given for a set of DARPins in FIG. 2. IC₅₀ values were calculated from such titration curves obtained as described above using Graph Pad Prism software and standard procedures known to the person skilled in the art.

[3] = target: T2, Recombinant murine PDGF-BB (mouse, UniProt P31240 82-190, limits assumed); assay: SPR (ProteOn), biotinylated PDGF-BB on neutravidin chip, DARPin injected; Kd from on- and off-rates
T2 construct: For SPR chemically biotinylated on primary amines and captured on neutravidin; also called mouse PDGF-BB; PDGF-BB (mouse)
Method: as §1, §2, §3

[4] = target: T1, Recombinant human PDGF-BB; assay: cell-based or functional assay

T1 sequence (P01127 82-190 limits assumed): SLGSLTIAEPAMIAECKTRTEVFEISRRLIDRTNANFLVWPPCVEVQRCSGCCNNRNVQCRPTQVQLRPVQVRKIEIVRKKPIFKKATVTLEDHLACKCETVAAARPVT
T2 sequence (P31240 82-190 limits assumed): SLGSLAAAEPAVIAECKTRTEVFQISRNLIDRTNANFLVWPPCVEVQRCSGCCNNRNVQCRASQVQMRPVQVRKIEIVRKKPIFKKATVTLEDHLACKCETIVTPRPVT

Row | Binder | Kd [1] | IC50 [2] | Kd [3] | IC50 of inhibition of NIH-3T3 cell proliferation (WST-1) [4]
1 | B1 | 0.105 nM | 0.015 nM |  | 
2 | B2 | 0.152 nM | > 0.4 nM | 0.0828 nM | 
3 | B3 | 0.0301 nM | 0.015 nM |  | 1.4 nM
4 | B4 | 0.109 nM | 0.48 nM |  | 
5 | B5 | 0.0941 nM | 0.085 nM | 0.0583 nM | 
6 | B6 | 0.0242 nM |  | 0.053 nM | 
7 | B7 | 0.0638 nM |  | 0.0834 nM | 
8 | B8 | 0.0177 nM |  | 0.0174 nM | 
9 | B9 | 0.0806 nM |  | 0.0904 nM | 
10 | B10 | 0.0344 nM |  | 0.0608 nM | 
11 | B11 | 0.0147 nM |  | 0.0128 nM | 
12 | B12 |  | 0.068 nM |  | 
13 | B13 | 1290 nM |  | 1510 nM | 
14 | B14 | 0.0956 nM |  | 0.0981 nM | 
15 | B15 | 0.0805 nM |  | 0.0974 nM | 
16 | B16 | 0.121 nM | 0.008 nM |  | 
17 | B17 | 0.171 nM |  |  | 2 nM
18 | B18 | 0.0555 nM | 0.014 nM |  | 
19 | B19 | 0.245 nM | 0.21 nM |  | 
20 | B20 | 0.15 nM | 0.17 nM |  | 
21 | B21 | 0.128 nM | 0.036 nM |  | 
22 | B22 | 0.0937 nM | 0.14 nM |  | 
23 | B23 | 0.108 nM | 0.16 nM |  | 
24 | B24 | 0.112 nM | 0.15 nM |  | 
25 | B25 | 0.0768 nM | 0.13 nM | 0.0902 nM | 
26 | B26 | 0.123 nM | 0.204 nM |  | 
27 | B27 | 0.257 nM | 0.47 nM |  | 
28 | B28 | 0.0775 nM | 0.21 nM | 0.0592 nM | 
